According to patent US20190263932A1 (Eli Lilly, published 2019):
Where a chain is given by its changes, count along the chain named.

B1: mAb A (antibody, human IgG4 S228P, kappa, F234A L235A, V domains shown)
VH: EVQLVESGGGLVKPGGSLRLSCAASGFTFSGVSINWVRQAPGKGLEWVSSETTSSGTIYYADSVKGRFTISRDNAKNSLYLQMNSLRAEDTAVYYCARSYYYGMDVWGQGTTVTVSS
VL: DIVMTQTPLSSPVTLGQPASISCRSSQSLVHRNGNTYLSWLQQRPGQPPRLLIYKISNRFSGVPDRFSGSGAGTDFTLKISRVEAEDVGVYYCMQARQFPLTFGGGTKVEIKR
notes: Human IgG4PAA/Kappa
B2: mAb C (antibody, human IgG4 S228P, kappa, F234A L235A)
heavy: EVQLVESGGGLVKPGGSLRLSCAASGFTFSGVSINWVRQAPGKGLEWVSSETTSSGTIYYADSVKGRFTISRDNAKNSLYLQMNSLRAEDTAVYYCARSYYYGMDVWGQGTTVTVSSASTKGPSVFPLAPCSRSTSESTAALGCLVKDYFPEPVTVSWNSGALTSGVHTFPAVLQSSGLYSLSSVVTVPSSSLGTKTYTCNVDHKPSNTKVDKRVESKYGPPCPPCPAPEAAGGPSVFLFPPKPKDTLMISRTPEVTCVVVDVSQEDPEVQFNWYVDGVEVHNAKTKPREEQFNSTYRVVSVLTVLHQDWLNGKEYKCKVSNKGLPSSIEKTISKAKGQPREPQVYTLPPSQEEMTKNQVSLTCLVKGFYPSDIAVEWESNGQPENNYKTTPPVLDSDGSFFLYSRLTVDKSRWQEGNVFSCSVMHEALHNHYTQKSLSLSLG
light: DIVMTQTPLSSPVTLGQPASISCRSSQSLVHRQGNTYLSWLQQRPGQPPRLLIYKISNRFSGVPDRFSGSGAGTDFTLKISRVEAEDVGVYYCMQARQFPLTFGGGTKVEIKRTVAAPSVFIFPPSDEQLKSGTASVVCLLNNFYPREAKVQWKVDNALQSGNSQESVTEQDSKDSTYSLSSTLTLSKADYEKHKVYACEVTHQGLSSPVTKSFNRGEC
notes: Human IgG4PAA/Kappa
B3: mAb B (antibody, human IgG4 S228P, kappa, F234A L235A)
heavy: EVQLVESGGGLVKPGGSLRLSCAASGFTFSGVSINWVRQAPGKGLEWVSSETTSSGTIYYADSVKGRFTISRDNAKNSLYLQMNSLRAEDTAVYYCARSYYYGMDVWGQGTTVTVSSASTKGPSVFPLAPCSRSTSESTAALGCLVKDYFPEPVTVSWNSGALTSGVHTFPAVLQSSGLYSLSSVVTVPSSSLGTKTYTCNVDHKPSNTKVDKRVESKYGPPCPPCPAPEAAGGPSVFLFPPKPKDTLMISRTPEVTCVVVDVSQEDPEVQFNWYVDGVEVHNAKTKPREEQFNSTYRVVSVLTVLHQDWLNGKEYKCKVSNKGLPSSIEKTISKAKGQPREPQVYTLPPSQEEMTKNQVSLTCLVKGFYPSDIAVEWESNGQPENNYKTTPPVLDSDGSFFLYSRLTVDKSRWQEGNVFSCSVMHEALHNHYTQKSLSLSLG
light: B2 light with Q33A
notes: Human IgG4PAA/Kappa

Columns and labels:
[1] = target: T1, recombinant human TrkA protein (human, UniProt P04629-2 34-407, limits assumed); test: NGF-blocking ELISA on coated human TrkA, 100 nM btNGF
T1 sequence (P04629 other isoform, or with tags, fused parts or gaps limits assumed): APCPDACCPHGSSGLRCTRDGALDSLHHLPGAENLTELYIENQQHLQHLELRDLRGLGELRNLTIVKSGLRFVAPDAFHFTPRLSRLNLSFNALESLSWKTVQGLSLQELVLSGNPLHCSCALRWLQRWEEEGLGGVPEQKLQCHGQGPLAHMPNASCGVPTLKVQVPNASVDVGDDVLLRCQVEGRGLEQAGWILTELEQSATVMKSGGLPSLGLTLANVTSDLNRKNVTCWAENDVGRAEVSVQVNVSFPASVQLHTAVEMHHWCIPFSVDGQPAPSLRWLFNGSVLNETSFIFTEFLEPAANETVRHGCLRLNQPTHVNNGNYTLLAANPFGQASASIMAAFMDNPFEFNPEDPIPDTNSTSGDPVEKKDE
Procedure: (§1) Each row of a 96-well high-binding clear-bottom microtiter plate (Microlon, #655061) was coated overnight at 4° C. with 100 μL/well of recombinant human TrkA protein, diluted to 2 μg/mL in phosphate buffered saline, pH 7.2 (PBS). The next day, the coating solution was removed, and the plate was blocked with 150 μL of Casein-PBS (Thermo Scientific, #37528) for 1 hour at 25° C. with gentle shaking. The plate was then washed three times with PBS supplemented with 0.05% Tween20 (PBST). A two-fold dilution series of exemplified antibodies, along with IgG4 and IgG1 isotype control antibodies, was generated starting at 20 nM in Casein-PBS. 100 μL of the each dilution series sample was added to a well for 30 min at 37° C. with gentle shaking. The plate was then washed three times with PBST. […] The plate was then washed three times with PBST. A 1:3500 dilution of a 1 mg/mL stock solution of streptavidin-HRP (Thermo Scientific, #21130) in Casein-PBS was prepared and […] was added to each well for 20 min at 37° C. with gentle shaking. The plate was washed three times with PBST. […] The reaction was stopped by addition of 100 μL of 1M H₃PO₄ to each well. The absorbance at 450 nm (Abs450) was measured using a SpectraMax 340PC plate reader (Molecular Devices).

[2] = target: T1, recombinant human TrkA protein; test: NGF-blocking ELISA on coated human TrkA, 100 nM btNGF; mAb 1.25 nM
Procedure: as §1

[3] = target: T1, recombinant human TrkA protein; test: NGF-blocking ELISA on coated human TrkA, 100 nM btNGF; mAb 0.08 nM
Procedure: as §1

[4] = target: T1, recombinant human TrkA protein; test: NGF-blocking ELISA on coated human TrkA, 100 nM btNGF; mAb 0.31 (printed pM, two-fold series gives nM)
Procedure: as §1

[5] = target: rat TrkA receptor expressed in transfected HEK293 cells (rat, UniProt P35739 33-799); test: cell-based or functional assay
Sequence of rat TrkA receptor expressed in transfected HEK293 cells (P35739 33-799): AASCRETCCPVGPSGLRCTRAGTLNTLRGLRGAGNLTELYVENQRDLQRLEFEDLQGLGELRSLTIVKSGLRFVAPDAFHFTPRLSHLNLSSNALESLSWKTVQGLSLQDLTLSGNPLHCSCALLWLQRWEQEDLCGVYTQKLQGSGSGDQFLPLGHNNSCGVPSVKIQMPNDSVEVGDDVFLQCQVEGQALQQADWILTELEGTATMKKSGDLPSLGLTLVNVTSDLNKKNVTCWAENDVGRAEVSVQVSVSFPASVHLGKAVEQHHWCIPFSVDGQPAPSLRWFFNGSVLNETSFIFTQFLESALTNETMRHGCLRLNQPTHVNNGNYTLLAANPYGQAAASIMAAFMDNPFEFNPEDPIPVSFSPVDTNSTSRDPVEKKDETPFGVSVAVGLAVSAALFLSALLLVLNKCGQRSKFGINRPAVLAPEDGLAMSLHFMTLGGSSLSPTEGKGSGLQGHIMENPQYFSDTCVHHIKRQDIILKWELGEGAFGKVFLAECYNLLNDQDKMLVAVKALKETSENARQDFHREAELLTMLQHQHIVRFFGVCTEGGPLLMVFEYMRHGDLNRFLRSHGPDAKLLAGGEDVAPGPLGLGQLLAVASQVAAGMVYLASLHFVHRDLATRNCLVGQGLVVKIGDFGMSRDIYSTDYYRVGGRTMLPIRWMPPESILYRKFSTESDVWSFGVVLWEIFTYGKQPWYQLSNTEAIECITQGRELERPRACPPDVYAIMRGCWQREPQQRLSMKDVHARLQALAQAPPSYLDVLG

[6] = target: T1, recombinant human TrkA protein; test: NGF-blocking ELISA on coated human TrkA, 100 nM btNGF; mAb 0.16 nM
Procedure: as §1

[7] = target: T1, recombinant human TrkA protein; test: NGF-blocking ELISA on coated human TrkA, 100 nM btNGF; mAb 10 nM
Procedure: as §1

[8] = target: T1, recombinant human TrkA protein; test: NGF-blocking ELISA on coated human TrkA, 100 nM btNGF; mAb 2.5 nM
Procedure: as §1

[9] = target: T1, recombinant human TrkA protein; test: NGF-blocking ELISA on coated human TrkA, 100 nM btNGF; mAb 5 nM
Procedure: as §1

[10] = target: T1, recombinant human TrkA protein; test: NGF-blocking ELISA on coated human TrkA, 100 nM btNGF; mAb 0.63 nM
Procedure: as §1

[11] = target: T1, recombinant human TrkA protein; test: NGF-blocking ELISA on coated human TrkA, 100 nM btNGF; mAb 0.04 nM
Procedure: as §1

[12] = target: T2, Human TrkA Extracellular Domain Isoform 2 (33-408) (human, UniProt P04629 33-414); test: SPR, mAb captured on Protein A chip, 37 C
T2 construct: SPR analyte; also called Human TrkA Isoform 2
T2 sequence (P04629 other isoform, or with tags, fused parts or gaps): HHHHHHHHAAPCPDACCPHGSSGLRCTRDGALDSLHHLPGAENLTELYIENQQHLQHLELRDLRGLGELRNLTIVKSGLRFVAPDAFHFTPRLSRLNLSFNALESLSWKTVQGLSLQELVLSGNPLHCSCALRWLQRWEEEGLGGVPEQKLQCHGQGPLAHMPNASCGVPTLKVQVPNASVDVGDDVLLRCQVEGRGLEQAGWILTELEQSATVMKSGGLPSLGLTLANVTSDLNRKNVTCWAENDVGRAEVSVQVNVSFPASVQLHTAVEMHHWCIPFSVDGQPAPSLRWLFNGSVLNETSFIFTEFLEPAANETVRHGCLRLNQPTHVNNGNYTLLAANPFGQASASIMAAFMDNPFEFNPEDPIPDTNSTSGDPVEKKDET
Procedure: Antibodies are captured onto a Series-S Sensor Protein A CM5 chip (GE Healthcare). For each channel, Flow Cell 1 (FC1) is designated as a buffer reference and Flow Cell 2 (FC2) is designated for antibody capture. All FC2 on all eight channels are set to capture approximately 89 response units (RU) of antibody at a flow rate of 10 μL/min. All antibody samples are prepared at 5 μg/mL by dilution into the running buffer. […] Before the analysis cycle, the chip is regenerated with 3 injections of glycine (pH ˜1.5) at 100 μL/min for a contact time of 15 seconds on FC1 and FC2 in order to clean the surface of the chip. […] This is repeated for each antibody evaluated. Data is processed using predefined antibody parallel kinetics with reference subtraction and fit to a 1:1 binding model using BIACORE™ 8K evaluation software (version 1.1.1.7442) to determine the association rate (on-rate, kon, M⁻¹s⁻¹ units) and the dissociation rate (off-rate, koff, s⁻¹ units). The equilibrium dissociation constant (KD) is calculated from the relationship KD=koff/kₒₙ, in molar units. The average (Avg) KD and error, reported as the standard deviation (SD), is determined from three independent experiments.

Binder	IC50 [1]	Absorbance 450 nm [2]	Absorbance 450 nm [3]	Absorbance 450 nm [4]	% Max stimulation, pTrkA [5]	EC50 (nM), pTrkA [5]	pTrkA counts per second, 0.1 pM mAb, no NGF [5]	pTrkA counts per second, 1 pM mAb, no NGF [5]	pTrkA counts per second, 10 pM mAb, no NGF [5]	pTrkA counts per second, 100 pM mAb, no NGF [5]	pTrkA counts per second, 1 nM mAb, no NGF [5]	pTrkA counts per second, 10 nM mAb, no NGF [5]	pTrkA counts per second, 100 nM mAb, no NGF [5]	pTrkA counts per second, 1 uM mAb, no NGF [5]	Absorbance 450 nm [6]	Absorbance 450 nm [7]	Absorbance 450 nm [8]	Absorbance 450 nm [9]	Absorbance 450 nm [10]	Absorbance 450 nm [11]	other results
B1	0.34 nM	0.26	1.03	0.73	18%	0.88 nM	171000 counts per second	174000 counts per second	227000 counts per second	203000 counts per second	442000 counts per second	640000 counts per second	572000 counts per second	493000 counts per second	0.87	0.2	0.21	0.2	0.38	1.09	
B2	0.28 nM	0.16	0.92	0.56	50%	0.21 nM	571000 counts per second	613000 counts per second	664000 counts per second	922000 counts per second	1.54e+06 counts per second	1.69e+06 counts per second	1.77e+06 counts per second	1.63e+06 counts per second	0.77	0.15	0.15	0.16	0.3	1.03	
B3	0.27 nM	0.17	0.75	0.55	38%	0.98 nM	748000 counts per second	844000 counts per second	638000 counts per second	758000 counts per second	1.4e+06 counts per second	2.1e+06 counts per second	2.08e+06 counts per second	1.86e+06 counts per second	0.7	0.14	0.16	0.15	0.25	0.87	Kd [12]: 7.7 nM; koff [12]: 0.0012 s⁻¹; kon [12]: 160000 M⁻¹ s⁻¹
